Experimental data: paper PMC9582194, “The effect of helix-inducing constraints and downsizing upon a transcription block survival-derived functional cJun antagonist” (Cell Reports. Physical Science, 2022)
Positions of bridges follow the written chain, without caps; N, C: chain ends.

B1: HW8 (peptide)
peptide: Ac-EAEELVVEEDVLEEEIEQLEERNYALRKEIEDLQKQ-NH2
notes: truncation NΔ20 CΔ7 of HW1; source: synthetic peptide (Fmoc SPPS, RP-HPLC purified)
B2: HW29 (peptide)
peptide: Ac-EAEELVVEEDVLEEEIEQLEERNYALRKEIKDLQDQ-NH2
modifications: lactam 31-35
SMILES: CC[C@H](C)[C@H](NC(=O)[C@H](CCC(=O)O)NC(=O)[C@H](CCCCN)NC(=O)[C@H](CCCNC(=N)N)NC(=O)[C@H](CC(C)C)NC(=O)[C@H](C)NC(=O)[C@H](Cc1ccc(O)cc1)NC(=O)[C@H](CC(N)=O)NC(=O)[C@H](CCCNC(=N)N)NC(=O)[C@H](CCC(=O)O)NC(=O)[C@H](CCC(=O)O)NC(=O)[C@H](CC(C)C)NC(=O)[C@H](CCC(N)=O)NC(=O)[C@H](CCC(=O)O)NC(=O)[C@@H](NC(=O)[C@H](CCC(=O)O)NC(=O)[C@H](CCC(=O)O)NC(=O)[C@H](CCC(=O)O)NC(=O)[C@H](CC(C)C)NC(=O)[C@@H](NC(=O)[C@H](CC(=O)O)NC(=O)[C@H](CCC(=O)O)NC(=O)[C@H](CCC(=O)O)NC(=O)[C@@H](NC(=O)[C@@H](NC(=O)[C@H](CC(C)C)NC(=O)[C@H](CCC(=O)O)NC(=O)[C@H](CCC(=O)O)NC(=O)[C@H](C)NC(=O)[C@H](CCC(=O)O)NC(C)=O)C(C)C)C(C)C)C(C)C)[C@@H](C)CC)C(=O)N[C@H]1CCCCNC(=O)C[C@@H](C(=O)N[C@@H](CCC(N)=O)C(N)=O)NC(=O)[C@H](CCC(N)=O)NC(=O)[C@H](CC(C)C)NC(=O)[C@H](CC(=O)O)NC1=O
notes: cyclized form of the pair HW28/HW29; NΔ20 CΔ7; source: synthetic peptide (Fmoc SPPS, on-resin lactamization, RP-HPLC purified)
B3: HW30 (peptide)
peptide: Ac-EAEELVVEEKVLEDEIEQLEERNYALRKEIKDLQDQ-NH2
modifications: lactam 10-14, 31-35
SMILES: CC[C@H](C)[C@H](NC(=O)[C@H](CCC(=O)O)NC(=O)[C@H](CCCCN)NC(=O)[C@H](CCCNC(=N)N)NC(=O)[C@H](CC(C)C)NC(=O)[C@H](C)NC(=O)[C@H](Cc1ccc(O)cc1)NC(=O)[C@H](CC(N)=O)NC(=O)[C@H](CCCNC(=N)N)NC(=O)[C@H](CCC(=O)O)NC(=O)[C@H](CCC(=O)O)NC(=O)[C@H](CC(C)C)NC(=O)[C@H](CCC(N)=O)NC(=O)[C@H](CCC(=O)O)NC(=O)[C@@H](NC(=O)[C@H](CCC(=O)O)NC(=O)[C@@H]1CC(=O)NCCCC[C@H](NC(=O)[C@H](CCC(=O)O)NC(=O)[C@H](CCC(=O)O)NC(=O)[C@@H](NC(=O)[C@@H](NC(=O)[C@H](CC(C)C)NC(=O)[C@H](CCC(=O)O)NC(=O)[C@H](CCC(=O)O)NC(=O)[C@H](C)NC(=O)[C@H](CCC(=O)O)NC(C)=O)C(C)C)C(C)C)C(=O)N[C@@H](C(C)C)C(=O)N[C@@H](CC(C)C)C(=O)N[C@@H](CCC(=O)O)C(=O)N1)[C@@H](C)CC)C(=O)N[C@H]1CCCCNC(=O)C[C@@H](C(=O)N[C@@H](CCC(N)=O)C(N)=O)NC(=O)[C@H](CCC(N)=O)NC(=O)[C@H](CC(C)C)NC(=O)[C@H](CC(=O)O)NC1=O
notes: double lactamized peptide; NΔ20 CΔ7; also called double lactam peptide HW30; source: synthetic peptide (Fmoc SPPS, on-resin lactamization, RP-HPLC purified)
B4: HW23 (peptide)
peptide: Ac-EAEELVVEEKVLEDEIEQLEERNYALRKEIEDLQKQ-NH2
modifications: lactam 10-14
SMILES: CC[C@H](C)[C@H](NC(=O)[C@H](CCC(=O)O)NC(=O)[C@H](CCCCN)NC(=O)[C@H](CCCNC(=N)N)NC(=O)[C@H](CC(C)C)NC(=O)[C@H](C)NC(=O)[C@H](Cc1ccc(O)cc1)NC(=O)[C@H](CC(N)=O)NC(=O)[C@H](CCCNC(=N)N)NC(=O)[C@H](CCC(=O)O)NC(=O)[C@H](CCC(=O)O)NC(=O)[C@H](CC(C)C)NC(=O)[C@H](CCC(N)=O)NC(=O)[C@H](CCC(=O)O)NC(=O)[C@@H](NC(=O)[C@H](CCC(=O)O)NC(=O)[C@@H]1CC(=O)NCCCC[C@H](NC(=O)[C@H](CCC(=O)O)NC(=O)[C@H](CCC(=O)O)NC(=O)[C@@H](NC(=O)[C@@H](NC(=O)[C@H](CC(C)C)NC(=O)[C@H](CCC(=O)O)NC(=O)[C@H](CCC(=O)O)NC(=O)[C@H](C)NC(=O)[C@H](CCC(=O)O)NC(C)=O)C(C)C)C(C)C)C(=O)N[C@@H](C(C)C)C(=O)N[C@@H](CC(C)C)C(=O)N[C@@H](CCC(=O)O)C(=O)N1)[C@@H](C)CC)C(=O)N[C@@H](CCC(=O)O)C(=O)N[C@@H](CC(=O)O)C(=O)N[C@@H](CC(C)C)C(=O)N[C@@H](CCC(N)=O)C(=O)N[C@@H](CCCCN)C(=O)N[C@@H](CCC(N)=O)C(N)=O
notes: cyclized form of the pair HW22/HW23; NΔ20 CΔ7; source: synthetic peptide (Fmoc SPPS, on-resin lactamization, RP-HPLC purified)
B5: HingeW (HW1) (peptide)
peptide: MASLEQRAEELARENEELEKEAEELVVEEDVLEEEIEQLEERNYALRKEIEDLQKQLEKLGAP
notes: TBS-selected 63-mer (acidic extension plus leucine zipper) with MAS N-cap and GAP C-cap; not shown: 6xHis, C-terminal, kept
B6: HW4 (peptide)
peptide: Ac-EAEELVVEEDVLEEEIEQLEERNYALRKEIEDLQKQLEKL-NH2
notes: truncation NΔ20 CΔ3 of HW1; source: synthetic peptide (Fmoc SPPS, RP-HPLC purified)

Key:
[1] = target: T1, cJun (60 amino acid construct encompassing the entire bZIP domain) (UniProt P05412 252-315); test: ITC; antagonist peptide at 25–200 μM injected into cJun at 2.5–20 μM in the cell, 25°C; 20 mM potassium phosphate, 150 mM potassium fluoride, 2 mM TCEP, pH 7.4; one-site binding model; two independent experiments; details: both partners purified
[2] = target: T1, cJun (60 amino acid construct …); test: CD thermal denaturation; peptide (5 μM) with cJun (5 μM); ellipticity at 222 nm, 1°C to 90°C; 20 mM potassium phosphate, 150 mM potassium fluoride, 2 mM TCEP, pH 7.4; two-state fit gives the Tm of the peptide-cJun heterodimer; duplicate experiments; details: both partners purified
[3] = target: T1, cJun (60 amino acid construct …); test: cell-based or functional assay

T1 sequence (P05412 252-315): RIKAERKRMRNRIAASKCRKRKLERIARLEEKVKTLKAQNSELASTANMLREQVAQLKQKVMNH

Binder | Kd [1] [µM] | dH [1] [kcal/mol] | stoichiometry N [1] | Tm of the peptide-cJun heterodimer [2] [°C] | IC50 CD: peptide added to pre-incubated cJun (20 μM) and TRE DNA (5 μM); blocks cJun/TRE DNA binding [3] [µM]
B1 | 1.1 | -5.99 | 0.95 | 57.1 | 82.1
B2 | 0.0866 | -23.6 | 0.97 | 65 | 52.7
B3 | 0.00969 | -30.5 | 1.05 | 63.2 | 44.9
B4 | 0.0696 | -14.1 | 1.2 | 64 | 74.9
B5 | 0.00021 | -31 | 0.93 | 71.2 | 13.4
B6 | 0.0911 | -45.4 | 0.91 | 64.1 | 45.4
